How the values were obtained:
VAPA = target: T1, VAPA (Rattus norvegicus, UniProt Q9Z270); assay: Peptide spot array (far western) of binding to VAPA, cell-free; conditions: lysate of VAPA-transfected HEK293 cells (FIG. 11A)
T1 construct: pEGFP-N1-VAPA; 1-242 (Addgene #18874); host or cells: HEK293 cells; whole lysate at 1 mg/ml total protein overlaid on the peptide arrays
T1 sequence (Q9Z270 8-249): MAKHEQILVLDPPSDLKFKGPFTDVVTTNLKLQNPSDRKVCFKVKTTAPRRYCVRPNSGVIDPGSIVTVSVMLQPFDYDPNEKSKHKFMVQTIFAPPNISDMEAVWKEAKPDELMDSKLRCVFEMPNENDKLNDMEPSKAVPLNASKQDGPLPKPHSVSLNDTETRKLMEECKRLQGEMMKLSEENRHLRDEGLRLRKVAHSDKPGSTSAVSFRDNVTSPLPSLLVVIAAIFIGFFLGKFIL
Description: Standard 9-fluorenylmethoxy carbonyl chemistry was used to synthesize peptides and spot them onto Celluspots nitrocellulose disks prederivatized with a polyethylene glycerol spacer (Intavis), using the Respep peptide synthesizer. The peptides were spotted on 20 membranes fitted on microscope glass slides (Intavis) using an Intavis MultiPep robot. For hybridization and immunoblotting of arrays, Celluspots slides were washed in TBST (50 mM Tris-HCl, pH 7.4, 150 mM NaCl, 0.1% Tween 20) for 10 minutes, […] blocked for 1 hour at room temperature (RT) with gentle shaking in TBST containing 5% nonfat dry milk. Lysates from HEK293 cells transfected as before (Yeh et al., J Neurosci. 37: 5648-5658, 2017; Yeh et al., Proc Natl Acad Sci USA. 116: 15696-15607, 2019; Dustrude et al., Proc Natl Acad Sci USA. 113: E8443-E8452, 2016) with pEGFP-N1-VAPA; 1-242 (Addgene #18874) were made in 20 mM Tris, 50 mM NaCl, 2 mM MgCl2, 1% Tergitol, 0.5% sodium deoxycholate, 0.1% sodium dodecyl sulfate with protease (Cat #B14002, Bimake), phosphatase (Cat #B15002, Bimake) inhibitor cocktails and 5 U/ml of universal nuclease (Cat #88702, Thermofisher) added extemporaneously. The concentration of lysates was measured by BCA (Cat #23227, Thermofisher) and peptide arrays were incubated with 1 mg/ml of total protein overnight at 4° C. (Yeh et al., J Neurosci. 37: 5648-5658, 2017; Yeh et al., Proc Natl Acad Sci USA. 116: 15696-15607, 2019; Moutal et al., Pain. 158: 2203-2221, 2017). Peptide arrays were washed 3 times for 5 minutes at RT with TBST and incubated with the primary antibody anti-VAPA (RRID AB_2722707; UC Davis/NIH NeuroMab Facility) for 2 hours at RT with gentle shaking in TBST, 5% BSA. After washing with TBST, the membranes were incubated in secondary antibody (IRDye® 800CW goat anti-mouse IgG secondary antibody; RRID AB_621842; Li-Cor) for 45 minutes, washed 3 times for 5 minutes in TBST, and visualized by infrared fluorescence (Li-Cor). Four independent peptide spot arrays were used in this study. Fluorescence intensity was analyzed with Image studio (Li-Cor).
Kv2.1 and Kv2.2 channels are recruited to ER-PM junctions via C-terminal PRC-mediated interaction with vesicle-associated membrane protein (VAMP)-associated protein A/B (VAPA/B) (Kirmiz, et al., J Neurosci. 38: 7562-7584, 2018; Johnson et al., Proc Natl Acad Sci USA. 115: E7331-E7340, 2018; Johnson, et al., Channels (Austin). 13: 88-101, 2019). This process occurs at non-canonical FFAT binding motifs within the PRC domains of Kv2.1 and Kv2.2 (FIG. 7B), which are recruited to the FFAT binding domain on VAPA/B (Kirmiz, et al., J Neurosci. 38: 7562-7584, 2018; Johnson et al., Proc Natl Acad Sci USA. 115: E7331-E7340, 2018; Johnson, et al., Channels (Austin). 13: 88-101, 2019). […]

Kv2.1 surface clusters = target: T2, Kv2.1 surface clusters (Rattus norvegicus, UniProt P15387); assay: Kv2.1 surface cluster density in live Kv2.1-GFP-transfected cortical neurons treated with TAT-linked peptides; type: cell-based; conditions: 10 μM
T2 construct: expressed in transfected cells; host or cells: primary rat cortical neurons (E16-17 Sprague-Dawley), Lipofectamine 2000
T2 sequence (P15387 1-857): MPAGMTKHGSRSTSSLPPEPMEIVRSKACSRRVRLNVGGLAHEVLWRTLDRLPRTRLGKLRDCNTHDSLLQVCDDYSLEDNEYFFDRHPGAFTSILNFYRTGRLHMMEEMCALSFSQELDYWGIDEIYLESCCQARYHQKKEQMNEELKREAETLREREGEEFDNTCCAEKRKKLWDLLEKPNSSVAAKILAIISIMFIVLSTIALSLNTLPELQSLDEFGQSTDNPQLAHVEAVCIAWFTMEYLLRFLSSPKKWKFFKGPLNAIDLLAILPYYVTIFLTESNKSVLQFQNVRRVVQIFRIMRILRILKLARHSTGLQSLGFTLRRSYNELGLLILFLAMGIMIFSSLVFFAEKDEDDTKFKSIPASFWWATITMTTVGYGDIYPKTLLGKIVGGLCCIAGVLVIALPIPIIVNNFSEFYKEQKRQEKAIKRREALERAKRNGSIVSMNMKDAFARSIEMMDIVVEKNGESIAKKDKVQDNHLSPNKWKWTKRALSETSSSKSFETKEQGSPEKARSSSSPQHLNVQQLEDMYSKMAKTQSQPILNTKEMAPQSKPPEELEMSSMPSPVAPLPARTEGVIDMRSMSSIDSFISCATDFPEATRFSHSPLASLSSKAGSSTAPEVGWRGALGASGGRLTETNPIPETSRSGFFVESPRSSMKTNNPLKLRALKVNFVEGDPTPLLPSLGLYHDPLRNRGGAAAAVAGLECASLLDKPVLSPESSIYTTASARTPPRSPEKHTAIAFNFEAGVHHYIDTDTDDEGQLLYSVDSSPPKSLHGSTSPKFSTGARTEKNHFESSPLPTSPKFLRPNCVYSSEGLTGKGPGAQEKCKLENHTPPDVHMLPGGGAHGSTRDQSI
Description: In vitro experiments utilized primary cortical neuronal cultures prepared from embryonic day 16-17 Sprague-Dawley rats of either sex in a protocol described previously (McCord et al., J Physiol (Lond). 592: 3511-3521, 2014). Timed-pregnant rats (Charles River Laboratories, Wilmington, Mass.) were sacrificed by CO2 inhalation. Embryonic cortices were dissociated with trypsin (0.6 mg/mL) and cells plated in sterile 6-well plates on poly-L-ornithine-coated glass coverslips at a density of 670,000 cells per well. Cytosine arabinoside (1-2 μM) was utilized to inhibit non-neuronal proliferation on day 14 in vitro (DIV); cultures were utilized at 21-25 DIV.
; Invitrogen, Carlsbad, Calif.). […]; Thermo Fisher Scientific, Waltham, Mass.). […]. Cultures were utilized 18-24 hours following transfection. cDNA amounts for each transfection experiment are described below for each figure. FIG. 1: 0.375 μg/well Kv2.1-GFP plasmid, 0.495 μg/well pcDNA3 vector plasmid, and 0.63 μg/well of either DP-1 or Sc-1, or Kv2.2 CT-expressing plasmid. FIGS. 2, 8, 9, 10, 12: 0.375 μg/well Kv2.1-GFP plasmid, 0.15 μg/well tdTomato plasmid (from Gerhart Ryffel; Addgene plasmid #30530), and 0.975 μg/well pcDNA3 vector plasmid.
To analyze Kv2.1 distribution in live primary cortical neurons, cells were transfected with both a tdTomato construct and a GFP-tagged Kv2.1 construct (O'Connell, et al., J Neurosci. 26: 9609-9618, 2006) and imaged on a Nikon A1+ confocal microscope (Nikon, Tokyo, Japan). Cells were chosen at random by looking only at the tdTomato signal (561 nm), in order to avoid bias. At least three separate culture dates were used per experiment and three coverslips were transfected per condition each time. For these experiments, “n” refers to the total number of cells imaged. Five to 15 optical sections (0.5 μm) capturing the cell surface were obtained of single cells at 60× magnification (Schulien et al., J Physiol (Lond). 594: 2647-2659, 2016), creating a maximum-intensity projection (MAX-IP) of Kv2.1-GFP distribution. To analyze Kv2.1 distribution in the cerebral cortex of fixed brain slices, 51-54 image fields were obtained at 60× magnification across 18 sections from three fixed mouse brains per treatment (total of 6 animals). Image fields were captured by first focusing on an area of superficial cortex closest to the cover glass. Next, 24 optical sections (0.5 μm) were obtained moving deeper into the tissue in order to produce a 12 μm maximum-intensity projection for analysis of Kv2.1 distribution. Laser power, HV (gain), offset, pinhole size, and all camera parameters were kept identical between all samples in a given experiment. Nikon Instruments Software Advanced Research (NIS-Elements AR) was utilized to analyze GFP-tagged Kv2.1 channel cluster distribution. For live images of transfected neurons, object count parameters were customized to define a Kv2.1 cluster as an area of high intensity GFP fluorescence (compared to background), measuring 0.05 μm^2 or larger (Schulien et al., J Physiol (Lond). 594: 2647-2659, 2016). Kv2.1 cluster density was calculated by normalizing the number of Kv2.1 clusters counted to the somatic area of each neuron (#Kv2.1 clusters/μm^2). Due to high variability in GFP-Kv2.1 expression between individual neurons, intensity thresholding required cell-specific local-background subtraction. In each neuron analyzed, two populations on Kv2.1-GFP expression were first noted—(a) highly localized signals of clustered Kv2.1 channels, and (b) diffuse background staining that represents freely-dispersed, conducting Kv2.1 channels on the plasma membrane. A small region of interest (ROI) within region (b) was set as the background subtraction standard of the image, creating an optimal signal-to-noise ratio for clustered Kv2.1 channels. […]

[1] = 2 hour treatment, mean±SEM (FIG. 11B)
[2] = 24 hour treatment, mean±SEM (FIG. 11C)

Substance	binding to VAPA in peptide spot array (VAPA)	mean Kv2.1 surface cluster density (Kv2.1 surface clusters; [1])	mean Kv2.1 surface cluster density (Kv2.1 surface clusters; [2])
EFFDAPE [positive control peptide, a canonical FFAT motif]	strong VAPA binding	–	–
SFISCAT [non-canonical FFAT motif of Kv2.1]	no binding	–	–
SFTSCAT [non-canonical FFAT motif of Kv2.2]	no binding	–	–
SIDSFTS [DP-2, seven amino acid declustering peptide from Kv2.2 CT]	no binding	–	–
YGRKKRRQRRRDEEFAP [TAT-FFATSc, scramble control peptide of TAT-FFAT]	–	0.14±0.02 #Kv2.1 clusters/μm^2 of neuronal soma	0.20±0.01 #Kv2.1 clusters/μm^2 of neuronal soma
YGRKKRRQRRREFFDAPE [TAT-FFAT, TAT-linked derivative of the canonical FFAT motif]	–	0.15±0.03 #Kv2.1 clusters/μm^2 of neuronal soma	0.19±0.02 #Kv2.1 clusters/μm^2 of neuronal soma

From patent publication US11673916B2, “Neuroprotective peptides and methods of their use” (University of Pittsburgh—Of the Commonwealth System of …, priority 2020, dated 2023)
